To fix the notation:
T1: purified recombinant IFNAR-1 extracellular fragment (human, UniProt P17181 28-436)
T1 construct: extracellular domain; also called soluble IFNAR-1; soluble IFNAR
T1 sequence (looked up): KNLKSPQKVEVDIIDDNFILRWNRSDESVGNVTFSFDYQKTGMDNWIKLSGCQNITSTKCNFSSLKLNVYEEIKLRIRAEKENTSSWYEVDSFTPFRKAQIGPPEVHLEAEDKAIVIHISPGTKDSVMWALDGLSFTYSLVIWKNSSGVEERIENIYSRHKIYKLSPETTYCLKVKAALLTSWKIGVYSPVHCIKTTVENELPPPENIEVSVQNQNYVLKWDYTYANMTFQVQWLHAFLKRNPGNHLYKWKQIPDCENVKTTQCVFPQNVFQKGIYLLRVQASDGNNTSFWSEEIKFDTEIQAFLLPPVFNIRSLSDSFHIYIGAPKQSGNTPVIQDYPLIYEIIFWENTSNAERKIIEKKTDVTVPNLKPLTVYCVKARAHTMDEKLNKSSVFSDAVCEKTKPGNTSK

B1: M3-11 (X = S) heavy chain with K1 light chain (antibody, V domains shown)
VH: EVQLLESGGGLVQPGGSLRLSCAFSGFTLSTSGMGIGWVRQAPGKGLEWVAHIWWDDDKYYNPSLKSRFTISRDTSKNTVYLQMNSLRAEDTAVYYCARNYYPYDAWFDSWGQGTLVTVS
VL: DIQMTQSPSSLSASVGDRVTITCSASSSINSNHLHWYQQKPGKAPKLLIYRTSILASGVPSRFSGSGSGTSFTLTISSLQPEDFATYYCQQGSNIPFTFGQGTKVEIK
notes: Position counted within VH CDR3; also called M3-11 S
B2: M3-11 (X = I) heavy chain with K1 light chain (antibody, V domains shown)
VH: EVQLLESGGGLVQPGGSLRLSCAFSGFTLSTSGMGIGWVRQAPGKGLEWVAHIWWDDDKYYNPSLKSRFTISRDTSKNTVYLQMNSLRAEDTAVYYCARNYYPYDAWFDIWGQGTLVTVS
VL: DIQMTQSPSSLSASVGDRVTITCSASSSINSNHLHWYQQKPGKAPKLLIYRTSILASGVPSRFSGSGSGTSFTLTISSLQPEDFATYYCQQGSNIPFTFGQGTKVEIK
notes: Position counted within VH CDR3; also called M3-11 I
B3: M3-11 (X = V) heavy chain with K1 light chain (antibody, V domains shown)
VH: EVQLLESGGGLVQPGGSLRLSCAFSGFTLSTSGMGIGWVRQAPGKGLEWVAHIWWDDDKYYNPSLKSRFTISRDTSKNTVYLQMNSLRAEDTAVYYCARNYYPYDAWFDVWGQGTLVTVS
VL: DIQMTQSPSSLSASVGDRVTITCSASSSINSNHLHWYQQKPGKAPKLLIYRTSILASGVPSRFSGSGSGTSFTLTISSLQPEDFATYYCQQGSNIPFTFGQGTKVEIK
notes: Position counted within VH CDR3; also called M3-11 V
B4: M3-11 (X = L) heavy chain with K1 light chain (antibody, V domains shown)
VH: EVQLLESGGGLVQPGGSLRLSCAFSGFTLSTSGMGIGWVRQAPGKGLEWVAHIWWDDDKYYNPSLKSRFTISRDTSKNTVYLQMNSLRAEDTAVYYCARNYYPYDAWFDLWGQGTLVTVS
VL: DIQMTQSPSSLSASVGDRVTITCSASSSINSNHLHWYQQKPGKAPKLLIYRTSILASGVPSRFSGSGSGTSFTLTISSLQPEDFATYYCQQGSNIPFTFGQGTKVEIK
notes: the position is counted within CDR3, not on the entry; also called M3-11 L
B5: M3-11 (X = W) heavy chain with K1 light chain (antibody, V domains shown)
VH: EVQLLESGGGLVQPGGSLRLSCAFSGFTLSTSGMGIGWVRQAPGKGLEWVAHIWWDDDKYYNPSLKSRFTISRDTSKNTVYLQMNSLRAEDTAVYYCARNYYPYDAWFDWWGQGTLVTVS
VL: DIQMTQSPSSLSASVGDRVTITCSASSSINSNHLHWYQQKPGKAPKLLIYRTSILASGVPSRFSGSGSGTSFTLTISSLQPEDFATYYCQQGSNIPFTFGQGTKVEIK
notes: Position counted within VH CDR3; also called M3-11 W
B6: M3-11 (X = K) heavy chain with K1 light chain (antibody, V domains shown)
VH: EVQLLESGGGLVQPGGSLRLSCAFSGFTLSTSGMGIGWVRQAPGKGLEWVAHIWWDDDKYYNPSLKSRFTISRDTSKNTVYLQMNSLRAEDTAVYYCARNYYPYDAWFDKWGQGTLVTVS
VL: DIQMTQSPSSLSASVGDRVTITCSASSSINSNHLHWYQQKPGKAPKLLIYRTSILASGVPSRFSGSGSGTSFTLTISSLQPEDFATYYCQQGSNIPFTFGQGTKVEIK
notes: Position counted within VH CDR3; also called M3-11 K
B7: M3-11 (X = T) heavy chain with K1 light chain (antibody, V domains shown)
VH: EVQLLESGGGLVQPGGSLRLSCAFSGFTLSTSGMGIGWVRQAPGKGLEWVAHIWWDDDKYYNPSLKSRFTISRDTSKNTVYLQMNSLRAEDTAVYYCARNYYPYDAWFDTWGQGTLVTVS
VL: DIQMTQSPSSLSASVGDRVTITCSASSSINSNHLHWYQQKPGKAPKLLIYRTSILASGVPSRFSGSGSGTSFTLTISSLQPEDFATYYCQQGSNIPFTFGQGTKVEIK
notes: Position counted within VH CDR3; also called M3-11 T
B8: M3-11 (X = Q) heavy chain with K1 light chain (antibody, V domains shown)
VH: EVQLLESGGGLVQPGGSLRLSCAFSGFTLSTSGMGIGWVRQAPGKGLEWVAHIWWDDDKYYNPSLKSRFTISRDTSKNTVYLQMNSLRAEDTAVYYCARNYYPYDAWFDQWGQGTLVTVS
VL: DIQMTQSPSSLSASVGDRVTITCSASSSINSNHLHWYQQKPGKAPKLLIYRTSILASGVPSRFSGSGSGTSFTLTISSLQPEDFATYYCQQGSNIPFTFGQGTKVEIK
notes: Position counted within VH CDR3; also called M3-11 Q
B9: M3-11 (X = H) heavy chain with K1 light chain (antibody, V domains shown)
VH: EVQLLESGGGLVQPGGSLRLSCAFSGFTLSTSGMGIGWVRQAPGKGLEWVAHIWWDDDKYYNPSLKSRFTISRDTSKNTVYLQMNSLRAEDTAVYYCARNYYPYDAWFDHWGQGTLVTVS
VL: DIQMTQSPSSLSASVGDRVTITCSASSSINSNHLHWYQQKPGKAPKLLIYRTSILASGVPSRFSGSGSGTSFTLTISSLQPEDFATYYCQQGSNIPFTFGQGTKVEIK
notes: Position counted within VH CDR3; also called M3-11 H
B10: M3-11 (X = R) heavy chain with K1 light chain (antibody, V domains shown)
VH: EVQLLESGGGLVQPGGSLRLSCAFSGFTLSTSGMGIGWVRQAPGKGLEWVAHIWWDDDKYYNPSLKSRFTISRDTSKNTVYLQMNSLRAEDTAVYYCARNYYPYDAWFDRWGQGTLVTVS
VL: DIQMTQSPSSLSASVGDRVTITCSASSSINSNHLHWYQQKPGKAPKLLIYRTSILASGVPSRFSGSGSGTSFTLTISSLQPEDFATYYCQQGSNIPFTFGQGTKVEIK
notes: Position counted within VH CDR3; also called M3-11 R
B11: DI M3 heavy chain with K1-C light chain (antibody, V domains shown)
VH: EVQLLESGGGLVQPGGSLRLSCAASGFTMSTSGMGIGWIRQTPGKGLEWVAHIWWDDDKYYNPSLKSRFTISKDTSKNTLYLQMNSLRAEDTAVYYCARNYYPYDAWFDYWGQGTLVTVS
VL: DIQMTQSPSSLSASVGDRVTITCSASTSINSNHLHWYQQKPGKAPKLLIYRTSILASGVPSRFSGSGSGTSFTLTISSLQPEDFATYYCQQGSNIPFTFGQGTKVEIKR
notes: also called DI M3 K1-C
B12: M3-B heavy chain with DI K1-C light chain (antibody, V domains shown)
VH: EVQLLESGGGLVQPGGSLRLSCAFSGFTLSTSGMGIGWVRQAPGKGLEWVAHIWWDDDKYYNPSLKARFTISRDTSKNTVYLQMNSLRAEDTAVYYCARNYYPYDAWFDYWGQGTLVTVS
VL: DIQMTQSPSSLSASVGDRVTITCSASTSINSNHLHWYLQKPGKAPKALIYRTSILASGIPSRFSGSGSGTDFTLTISSLQPEDTATYYCQQGSNIPFTFGQGTKVEIKR
notes: also called M3-B DI K1-C
B13: DI M3-B heavy chain with DI K1 light chain (antibody, V domains shown)
VH: EVQLLESGGGLVQPGGSLRLSCAASGFTMSTSGMGIGWIRQTPGKGLEWVAHIWWDDDKYYNPSLKARFTISRDTSKNTLYLQMNSLRAEDTAVYYCARNYYPYDAWFDYWGQGTLVTVS
VL: DIQMTQSPSSLSASVGDRATITCSASSSINSNHLHWYLQKPGKAPKALIYRTSILASGIPSRFSGSGSGTDFTLTISSLQPEDTATYYCQQGSNIPFTFGQGTKVEIKR
notes: also called DI M3-B DI K1
B14: DI M3-B heavy chain with K1 light chain (antibody, V domains shown)
VH: EVQLLESGGGLVQPGGSLRLSCAASGFTMSTSGMGIGWIRQTPGKGLEWVAHIWWDDDKYYNPSLKARFTISRDTSKNTLYLQMNSLRAEDTAVYYCARNYYPYDAWFDYWGQGTLVTVS
VL: DIQMTQSPSSLSASVGDRVTITCSASSSINSNHLHWYQQKPGKAPKLLIYRTSILASGVPSRFSGSGSGTSFTLTISSLQPEDFATYYCQQGSNIPFTFGQGTKVEIKR
notes: also called DI M3-B K1
B15: DI M3 heavy chain with DI K1-C light chain (antibody, V domains shown)
VH: EVQLLESGGGLVQPGGSLRLSCAASGFTMSTSGMGIGWIRQTPGKGLEWVAHIWWDDDKYYNPSLKSRFTISKDTSKNTLYLQMNSLRAEDTAVYYCARNYYPYDAWFDYWGQGTLVTVS
VL: DIQMTQSPSSLSASVGDRVTITCSASTSINSNHLHWYLQKPGKAPKALIYRTSILASGIPSRFSGSGSGTDFTLTISSLQPEDTATYYCQQGSNIPFTFGQGTKVEIKR
notes: also called DI M3 DI K1-C
B16: DI M3-B heavy chain with DI K1-C light chain (antibody, V domains shown)
VH: EVQLLESGGGLVQPGGSLRLSCAASGFTMSTSGMGIGWIRQTPGKGLEWVAHIWWDDDKYYNPSLKARFTISRDTSKNTLYLQMNSLRAEDTAVYYCARNYYPYDAWFDYWGQGTLVTVS
VL: DIQMTQSPSSLSASVGDRVTITCSASTSINSNHLHWYLQKPGKAPKALIYRTSILASGIPSRFSGSGSGTDFTLTISSLQPEDTATYYCQQGSNIPFTFGQGTKVEIKR
notes: also called DI M3-B DI K1-C
B17: M3-B heavy chain with DI K1 light chain (antibody, V domains shown)
VH: EVQLLESGGGLVQPGGSLRLSCAFSGFTLSTSGMGIGWVRQAPGKGLEWVAHIWWDDDKYYNPSLKARFTISRDTSKNTVYLQMNSLRAEDTAVYYCARNYYPYDAWFDYWGQGTLVTVS
VL: DIQMTQSPSSLSASVGDRATITCSASSSINSNHLHWYLQKPGKAPKALIYRTSILASGIPSRFSGSGSGTDFTLTISSLQPEDTATYYCQQGSNIPFTFGQGTKVEIKR
notes: also called M3-B DI K1
B18: M3 heavy chain with DI K1-C light chain (antibody, V domains shown)
VH: EVQLLESGGGLVQPGGSLRLSCAFSGFTLSTSGMGIGWVRQAPGKGLEWVAHIWWDDDKYYNPSLKSRFTISRDTSKNTVYLQMNSLRAEDTAVYYCARNYYPYDAWFDYWGQGTLVTVS
VL: DIQMTQSPSSLSASVGDRVTITCSASTSINSNHLHWYLQKPGKAPKALIYRTSILASGIPSRFSGSGSGTDFTLTISSLQPEDTATYYCQQGSNIPFTFGQGTKVEIKR
notes: also called M3 DI K1-C

The results in this text go back to patent US20050208041A1 (Bristol-Myers Squibb, published 2005).

The target of the first experiment is T1, purified recombinant IFNAR-1 …. The experiment is described as follows: Biacore, maximal association on IFNAR-1 relative to M3K1. The text has this: Pools 4 and 11 were selected for further study and the individual antibodies in each pool were produced and expressed separately. The sequences of these individual antibodies were as shown in SEQ ID NO:12 of FIG. 1F and SEQ ID NO: 13 of FIG. 1G. The data is presented as maximal association relative to M3K1. […]
On the technique in general: SPR reads the build-up and loss of mass on a sensor chip optically.
Take B1: the “% activity relative to M3K1” value came to 39%. For B2, the “% activity relative to M3K1” value was determined as 81%. Consider B3, for which the “% activity relative to M3K1” value was found to be 108%. For the molecule B4, the “% activity relative to M3K1” value amounted to 75%. On to B5, for which the “% activity relative to M3K1” value is 70%. Regarding B6, the “% activity relative to M3K1” value was 82%.

With B7, the “% activity relative to M3K1” value is 82%. Consider B8, for which the “% activity relative to M3K1” value turned out to be 73%. As to B9, the “% activity relative to M3K1” value is 104%. With B10, the “% activity relative to M3K1” value came out at 220%.

For a further experiment the target is unchanged. The experiment is described as follows: Biacore, antibody on immobilized soluble IFNAR-1, maximal response, mean of four. As for the experimental part:
Additional combination variants heavy chain DI M3-B and light chain DI K1-C were also made. These combination variants were also tested for binding to IFNAR-1. […] Binding analysis was done by Biacore, with the antibody bound to immobilized soluble IFNAR-1. Maximal response was determined at two concentrations and values shown are mean of four determinations.
For B11, the “% response relative to H3K1” value was 96%. Take B12: the “% response relative to H3K1” value was 14%.

B13: the “% response relative to H3K1” value is 11%. B14: the “% response relative to H3K1” value worked out at 122%. B15: the “% response relative to H3K1” value turned out to be 4%. For the molecule B16, the “% response relative to H3K1” value is 9%.

On to B17, for which the “% response relative to H3K1” value amounted to 17%. Same read-out and setting: for B18 the value was 17%.
